Literature values, collected in paper PMC12336664.

Target: FXa (Homo sapiens) (UniProt P00742)
UniProt P00742, sequence (P00742 41-179, chain 1 of 2): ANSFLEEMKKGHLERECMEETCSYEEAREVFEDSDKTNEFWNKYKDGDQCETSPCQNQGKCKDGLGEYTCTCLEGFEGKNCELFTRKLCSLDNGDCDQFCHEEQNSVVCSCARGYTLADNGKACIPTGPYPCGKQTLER
UniProt P00742, sequence (P00742 235-488, chain 2 of 2): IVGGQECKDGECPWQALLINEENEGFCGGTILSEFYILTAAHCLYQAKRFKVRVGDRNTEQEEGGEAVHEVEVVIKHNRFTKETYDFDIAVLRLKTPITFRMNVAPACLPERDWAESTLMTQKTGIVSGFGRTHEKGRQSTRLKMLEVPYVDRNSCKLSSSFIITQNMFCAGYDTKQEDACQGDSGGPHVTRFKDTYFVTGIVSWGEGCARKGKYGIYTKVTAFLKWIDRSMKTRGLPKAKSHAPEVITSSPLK

For TFPIα (from UniProt P10646), the Kd is given as 0.02 nM.
